Here are results for three sequences from publication doi:10.1101/2023.08.25.554718.

Broadly, the Kd is the concentration at which binding is half-saturated.

What all share (test): EMSA
Common to all, as to conditions: EMSA: 20 mM HEPES pH 7.3, 150 mM NaCl, 0.5 mM TCEP, 30 min room temperature, 0.5 uM nucleosome or DNA, FRET: 20 mM HEPES pH 7.1, 100 mM NaCl

Data set [1] deals with PU.1 ETS (ETSPU.1) (mouse) (UniProt P17433).
In data set [2] the target is MBP-DBD C/EBPalpha (UniProt P53566).
The target of data set [3] is PU.1 ETS Q218H Q218H (mouse) (UniProt P17433).

Sequence of MBP-DBD C/EBPalpha (P53566 214-359): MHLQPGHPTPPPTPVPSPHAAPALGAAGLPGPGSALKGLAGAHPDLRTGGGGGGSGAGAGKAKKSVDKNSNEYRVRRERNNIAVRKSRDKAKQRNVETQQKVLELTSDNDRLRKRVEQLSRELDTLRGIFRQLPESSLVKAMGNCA

On to “TAGGTGCAGGGCCTCTCGGCTGCTGATCTTCAGCTGGTTGCTGAGAGTTGCAGCATTGCTGAGTCTTAGCAATGGATACTTCCCGATTCCCCTCACAAAAATAGGTCAGTCTGTCTGGCTAGTTCTGTACTTGCAGACACAGGGCATGTGGGGTTCCTATTT (double strand) [162 bp CX3CR1 nucleosome, 3A H2A (K75A;K76A;T77A)]”, for which the fold reduction in binding affinity (fold reduction in affinity vs WT H2A) in data set [1] is 3.

“TAGGTGCAGGGCCTCTCGGCTGCTGATCTTCAGCAACTTGCTGAGAGTTGCAGCATTGCTGAGTCTTAGCAATGGATACTTCCCGATTCCCCTCACAAAAATAGGTCAGTCTGTCTGGCTAGTTCTGTACTTGCAGACACAGGGCATGTGGGGTTCCTATTT (double strand) [Cmut CX3CR1 nucleosome]” displayed a Kd in data set [2] of 2400 nM.

Regarding “TAGGTGCAGGGCCTCTCGGCTGCTGATCTTCAGCTGGTTGCTGAGAGTTGCAGCATTGCTGAGTCTTAGCAATGGATACTTCCCGATTCCCCTCACAAAAATAGGTCAGTCTGTCTGGCTAGTTCTGTACTTGCAGACACAGGGCATGTGGGGTTCCTATTT (double strand) [162 bp CX3CR1 nucleosome]”, the binding signal (fold reduction in affinity vs WT) in data set [3] is 2. The same sequence registered a Kd in data set [2] of 1700 nM.
